In US8268550B2, “Compositions and methods for identification of PARP function, inhibitors, and activators” (Massachusetts Institute of Technology, priority 2009, dated 2012):

Test system: 293T cells
Assay: Modified pGL4.72[hRlucCP] vector luciferase assay of RNAi/miRNA activity
Format: cell-based
Settings: overexpression from pEGFP-C1; 10 nM vector-target RNAi; 48 hours post-transfection; FIG. 30
Protocol: To identify additional substrate proteins of PAPR13, immunoprecipitation experiments were performed on lysate from HeLa cells transfected with a pEGFP-C1 plasmid containing a sequence encoding a PARP13-GFP fusion protein following treatment with either 0 or 250 μM sodium arsenite for 30 minutes. The cell lysate was treated with an anti-GFP antibody and the resulting immunoprecipitated proteins were electrophoresed using SDS-PAGE. […] In a second set of experiments, the ability of the vector-target RNAi to reduce the expression of luciferase was measured in 293T cells transfected with pGL4.72[hRlucCP]™ vector, 20 nM vector-target RNAi, and 20 nM of negative RNAi control for PARP13 siRNA (siNeg; AllStars Negative Control siRNA; Qiagen Catalog No. 1027280) or PARP13 siRNA (siPARP13; SEQ ID NO: 40) following treatment with 0 or 30 nM pateamine A for 2 hours. […]
Experiments to determine the effect of knockdown of PARP13 on miRNA and RNAi activity were performed using a modified pGL4.72[hRlucCP]™-vector assay (Promega). […] Following 48-hours incubation, the level of luciferase protein production was measured using a luciferase assay kit (Promega). […]

B1: PARP13: PARP13 overexpressed from a pEGFP-C1 expression vector; isoform not specified (protein)
chain: ADPEVCCFITKILCAHGGRMALDALLQEIALSEPQLCEVLQVAGPDRFVVLETGGEAGITRSVVATTRARVCRRKYCQRPCDNLHLCKLNLLGRCNYSQSERNLCKYSHEVLSEENFKVLKNHELSGLNKEELAVLLLQSDPFFMPEICKSYKGEGRQQICNQQPPCSRLHICDHFTRGNCRFPNCLRSHNLMDRKVLAIMREHGLNPDVVQNIQDICNSKHMQKNPPGPRAPSSHRRNMAYRARSKSRDRFFQGSQEFLASASASAERSCTPSPDQISHRASLEDAPVDDLTRKFTYLGSQDRARPPSGSSKATDLGGTSQAGTSQRFLENGSQEDLLHGNPGSTYLASNSTSAPNWKSLTSWTNDQGARRKTVFSPTLPAARSSLGSLQTPEAVTTRKGTGLLSSDYRIINGKSGTQDIQPGPLFNNNADGVATDITSTRSLNYKSTSSGHREISSPRIQDAGPASRDVQATGRIADDADPRVALVNDSLSDVTSTTSSRVDDHDSEEICLDHLCKGCPLNGSCSKVHFHLPYRWQMLIGKTWTDFEHMETIEKGYCNPGIHLCSVGSYTINFRVMSCDSFPIRRLSTPSSVTKPANSVFTTKWIWYWKNESGTWIQYGEEKDKRKNSNVDSSYLESLYQSCPRGVVPFQAGSRNYELSFQGMIQTNIASKTQKDVIRRPTFVPQWYVQQMKRGPDHQPAKTSSVSLTATFRPQEDFCFLSSKKYKLSEIHHLHPEYVRVSEHFKASMKNFKIEKIKKIENSELLDKFTWKKSQMKEEGKLLFYATSRAYVESICSNNFDSFLHETHENKYGKGIYFAKDAIYSHKNCPYDAKNVVMFVAQVLVGKFTEGNITYTSPPPQFDSCVDTRSNPSVFVIFQKDQVYPQYVIEYTEDKACVIS
decrease in the level of miRNA-mediated repression compared to control cells (EGFP- and G3BP-overexpressing cells): 3 fold
